{
  "source": "patent US20030219427A1",
  "about": "“TPL-2/COT kinase and methods of use” (priority 1998, published 2003)",
  "key": {"[1]": {"target": "endogenous NF-κB1 p105 (HeLa, Jurkat and 293 cells) (UniProt P19838)", "assay": "cell-based or functional assay"}, "HA-p105(369-969)": {"target": "T1, HA-p105(369-969) (Homo sapiens (Human), UniProt P19838 368-968)", "T1 construct": "also called p105?N", "T1 sequence": "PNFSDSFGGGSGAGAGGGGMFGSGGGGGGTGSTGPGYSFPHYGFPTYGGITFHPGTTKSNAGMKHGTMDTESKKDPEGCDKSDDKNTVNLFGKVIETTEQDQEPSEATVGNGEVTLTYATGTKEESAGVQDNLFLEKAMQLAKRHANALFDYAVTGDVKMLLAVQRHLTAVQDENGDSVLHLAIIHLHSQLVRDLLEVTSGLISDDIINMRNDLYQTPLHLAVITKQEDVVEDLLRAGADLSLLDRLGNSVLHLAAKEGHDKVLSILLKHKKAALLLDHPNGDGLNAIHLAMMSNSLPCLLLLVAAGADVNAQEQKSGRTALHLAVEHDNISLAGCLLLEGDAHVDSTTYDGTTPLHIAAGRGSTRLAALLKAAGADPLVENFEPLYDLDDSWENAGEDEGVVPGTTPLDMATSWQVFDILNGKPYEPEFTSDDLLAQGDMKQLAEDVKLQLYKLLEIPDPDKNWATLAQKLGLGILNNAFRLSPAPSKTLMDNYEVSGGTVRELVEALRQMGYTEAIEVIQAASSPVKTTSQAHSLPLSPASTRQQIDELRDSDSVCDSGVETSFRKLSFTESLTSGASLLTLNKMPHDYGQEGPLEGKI", "assay": "co-expression in HEK293 cells, isolation of the complex from lysates"}, "[2]": {"target": "T2, TPL-2 C-terminus (TPL-2398-467 peptide) (Rattus norvegicus, UniProt Q63562)", "T2 construct": "a synthetic peptide corresponding to the C-terminus of TPL-2 (residues 398-467); made in house; host or cells: chemical peptide synthesis", "T2 sequence (Q63562 398-467)": "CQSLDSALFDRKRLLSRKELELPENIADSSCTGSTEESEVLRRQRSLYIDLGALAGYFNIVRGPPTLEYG", "assay": "Surface plasmon resonance (BIAcore) binding to immobilized TPL-2 C-terminal peptide", "settings": "biotinylated TPL-2398-467 on Streptavidin sensor surface, 25° C.", "experimental": "(§1) Interaction between the TPL-2 C-terminus and recombinant p105 proteins was measured by surface plasmon resonance using the BIAcore system (BIAcore AB, Uppsala, Sweden; (Szabo, A., et al. (1995) Curr. Opin. Struct. biol. 5: 699-705)). The C-terminal 70 amino acids of TPL-2 (TPL-2398-467) were synthesised as a biotinylated peptide (conjugated to the equivalent of Cys398 of full length TPL-2) and immobilized on a Streptavidin-coated sensor surface (Sensorchip SA, BIAcore AB). Recombinant p105 proteins were then injected at different concentrations and resonance signals monitored. Dissociation at 25° C. was measured by flushing the TPL-2/p105 complexes with HBS-P buffer (10 MM HEPES-pH7.4, 150 mM NaCl, 0.005% (v/v) polysorbate 20; BIAcore AB). Data were evaluated using BIAevaluation software, version 3.0.2.\n(5.3.b) In order to obtain corroborating evidence for the TPL-2 C-terminus binding site on p105, surface plasmon resonance experiments were carried out using the panel of recombinant p105 proteins including p105 1-969, p105 498-969, p105 498-806, p105 497-782 and p105 541-802."}, "recombinant p105 541-802": {"target": "T3, recombinant p105 541-802 (Homo sapiens (Human), UniProt P19838 540-801)", "T3 construct": "Made in E. coli as a GST fusion and cleaved from GST", "T3 sequence": "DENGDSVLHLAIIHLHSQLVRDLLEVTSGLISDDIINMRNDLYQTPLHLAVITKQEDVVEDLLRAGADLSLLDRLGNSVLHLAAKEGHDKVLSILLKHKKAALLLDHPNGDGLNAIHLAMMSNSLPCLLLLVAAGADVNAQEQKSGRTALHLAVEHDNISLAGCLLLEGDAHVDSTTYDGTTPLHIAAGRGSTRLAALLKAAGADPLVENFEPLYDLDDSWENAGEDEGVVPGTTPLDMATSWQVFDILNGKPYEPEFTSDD", "assay": "surface plasmon resonance (BIAcore), biotinylated peptide on streptavidin chip", "experimental": "as §1, with “(TPL-2₃₉₈₋₄₆₇)” for “(TPL-2398-467)”"}, "[3]": {"target": "T4, Myc-TPL-2ΔC MEK kinase activity (Rattus norvegicus, UniProt Q63562)", "T4 construct": "TPL-2ΔC which lacks the C-terminal 70 amino acids; made in house; host or cells: HEK 293 cells, transient transfection, anti-Myc immunoprecipitation", "T4 sequence (Q63562 1-397, stated change not applied)": "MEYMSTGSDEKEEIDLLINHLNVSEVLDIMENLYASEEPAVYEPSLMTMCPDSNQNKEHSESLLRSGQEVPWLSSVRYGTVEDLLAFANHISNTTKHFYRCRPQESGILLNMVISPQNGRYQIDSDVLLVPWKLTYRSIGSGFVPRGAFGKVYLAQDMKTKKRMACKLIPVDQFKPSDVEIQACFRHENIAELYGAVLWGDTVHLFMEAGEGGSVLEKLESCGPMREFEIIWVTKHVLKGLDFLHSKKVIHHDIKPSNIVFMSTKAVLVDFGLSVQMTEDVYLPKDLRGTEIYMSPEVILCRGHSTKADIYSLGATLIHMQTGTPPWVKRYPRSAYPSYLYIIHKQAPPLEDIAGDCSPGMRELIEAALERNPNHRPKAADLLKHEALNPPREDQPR", "assay": "In vitro MEK kinase assay with GST-MEK1(K207A) substrate, Myc-TPL-2ΔC", "type": "biochemical", "experimental": "Myc-TPL-2 or Myc-TPL-2ΔC were isolated by immunoprecipitation from lysates of transiently transfected 293 cells, as described above. immunoprecipitates were washed four times in Buffer A, followed by two washes in kinase buffer (50 mM Tris-pH7.5, 150 mM NaCl, 5 mM β-glycerophosphate, 2 mM dithiothreitol, 0.1 mM sodium vanadate, 10 mM MgCl2, 1 mM EGTA, 0.01% Brij35). Beads were then resuspended in 50μl of kinase buffer plus the indicated amounts of recombinant p105 protein and incubated at 4° C. for 30 min. […] The supernatant was removed, mixed with an equal volume of 2×sample buffer, Western blotted after 8%-acrylamide SDS-PAGE and probed with anti-phospho-MEK-½ antibody. Immunoprecipitated Myc-TPL-2 or Myc-TPL-2ΔC was eluted with Laemlli sample buffer from the remaining anti-Myc mAb beads and quantified by Western blotting.\n(5.6.c) The inhibition of TPL-2 MEK kinase activity by p 105498-969 may be more efficient than the isolated p105 DD as the former protein contains a binding site for the TPL-2 C-terminus. It was, therefore, interesting to determine the sensitivity of TPL2ΔC catalytic activity to inhibition by p105. The specific activity of Myc-TPL-2ΔC, isolated by immunoprecipitation from transfected 293 cell lysates, was modestly (approximately 2-3 fold) increased relative to wild type Myc-TPL-2."}, "Myc-TPL-2": {"target": "Myc-TPL-2 (Homo sapiens (Human), UniProt P41279 1-467)", "assay": "cell-based or functional assay"}, "Myc-TPL-2ΔC": {"target": "Myc-TPL-2ΔC (Homo sapiens (Human), UniProt P41279 1-397)", "sequence (P41279 1-397, stated change not applied)": "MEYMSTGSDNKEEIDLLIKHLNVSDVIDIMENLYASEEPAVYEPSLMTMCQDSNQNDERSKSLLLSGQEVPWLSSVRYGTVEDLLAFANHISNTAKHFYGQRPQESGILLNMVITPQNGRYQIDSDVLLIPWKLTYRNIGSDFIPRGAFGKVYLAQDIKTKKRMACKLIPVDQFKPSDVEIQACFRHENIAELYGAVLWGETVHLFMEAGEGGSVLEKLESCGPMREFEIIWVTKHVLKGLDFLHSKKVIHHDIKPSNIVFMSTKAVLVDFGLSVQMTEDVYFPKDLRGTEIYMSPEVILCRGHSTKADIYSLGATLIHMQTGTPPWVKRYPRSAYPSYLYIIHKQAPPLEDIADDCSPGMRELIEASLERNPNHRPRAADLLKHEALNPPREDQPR", "assay": "cell-based or functional assay"}, "[4]": {"target": "T5, Myc-Raf1(CAAX) MEK kinase activity (Homo sapiens, UniProt P04049)", "T5 construct": "CAAX membrane-targeting motif (C); made in house", "assay": "In vitro MEK kinase assay, activated Raf1", "type": "biochemical"}, "[5]": {"target": "T6, endogenous p105 (mouse 3T3 fibroblasts) (mouse, UniProt P25799 1-971)", "T6 sequence (looked up)": "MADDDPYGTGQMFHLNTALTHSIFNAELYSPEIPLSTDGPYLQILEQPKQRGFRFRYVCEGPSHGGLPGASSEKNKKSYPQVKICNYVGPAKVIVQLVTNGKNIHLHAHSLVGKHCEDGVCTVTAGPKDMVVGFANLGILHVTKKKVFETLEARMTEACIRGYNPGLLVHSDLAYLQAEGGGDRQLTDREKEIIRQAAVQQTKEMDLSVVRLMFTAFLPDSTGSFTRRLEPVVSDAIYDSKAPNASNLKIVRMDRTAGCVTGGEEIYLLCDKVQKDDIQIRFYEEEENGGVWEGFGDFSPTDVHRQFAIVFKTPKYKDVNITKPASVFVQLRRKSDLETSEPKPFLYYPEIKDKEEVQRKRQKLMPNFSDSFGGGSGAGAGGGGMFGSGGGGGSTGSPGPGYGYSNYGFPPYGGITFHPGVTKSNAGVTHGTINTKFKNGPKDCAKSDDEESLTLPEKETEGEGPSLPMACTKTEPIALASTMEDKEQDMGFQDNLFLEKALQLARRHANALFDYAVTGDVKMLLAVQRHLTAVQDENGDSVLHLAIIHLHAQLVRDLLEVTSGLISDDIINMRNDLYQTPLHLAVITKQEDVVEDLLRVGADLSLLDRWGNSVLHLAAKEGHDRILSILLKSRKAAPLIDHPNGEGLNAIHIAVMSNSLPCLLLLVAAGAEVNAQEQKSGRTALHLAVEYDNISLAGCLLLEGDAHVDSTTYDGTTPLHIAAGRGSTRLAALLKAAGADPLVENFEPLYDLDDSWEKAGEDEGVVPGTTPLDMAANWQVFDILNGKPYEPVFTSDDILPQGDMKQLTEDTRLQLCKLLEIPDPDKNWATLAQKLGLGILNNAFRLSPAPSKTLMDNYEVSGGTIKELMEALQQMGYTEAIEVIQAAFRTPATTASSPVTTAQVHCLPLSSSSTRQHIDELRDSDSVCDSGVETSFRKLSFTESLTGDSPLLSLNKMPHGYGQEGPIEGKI", "assay": "anti-TPL-2 immunoprecipitation from lysates of wild type mouse 3T3 fibroblasts, Western blot", "experimental": "(5.5.c) To determine whether p105 regulates the steady-state levels of endogenous TPL-2 protein, cell lysates were prepared from 3T3 fibroblasts derived from wild type and NF-κB1-deficient mice. TPL-2 was readily detected by Western blotting of anti-TPL-2 immunoprecipitates from wild type fibroblasts and was associated with endogenous p105."}},
  "note": "* marks the point of attachment. Biotin = O=C1N[C@H]2[C@H](CS[C@H]2CCCCC(=O)*)N1",
  "data": [
    {"molecule": "TPL-2ΔC (from UniProt P41279 1-397)", "values": [
      {"measurement": "NF-κB-dependent luciferase reporter gene in Jurkat T cells", "setting": "[1]", "value": 12, "unit": "fold"}
    ]},
    {"molecule": "COT(131-411) (enzyme, not shown: small tags and cut ends, also called TPL-2 (131-411)) PWKLTYRNIGSDFIPRGAFGKVYLAQDIKTKKRMACKLIPVDQFKPSDVEIQACFRHENIAELYGAVLWGETVHLFMEAGEGGSVLEKLESCGPMREFEIIWVTKHVLKGLDFLHSKKVIHHDIKPSNIVFMSTKAVLVDFGLSVQMTEDVYFPKDLRGTEIYMSPEVILCRGHSTKADIYSLGATLIHMQTGTPPWVKRYPRSAYPSYLYIIHKQAPPLEDIADDCSPGMRELIEASLERNPNHRPRAADLLKHEALNPPREDQPRCTSLDSALLERKRL", "values": [
      {"measurement": "binding result", "setting": "HA-p105(369-969)", "value": "binds"}
    ]},
    {"molecule": "p105541-802: recombinant p105 protein, residues 541-802 (protein) DENGDSVLHLAIIHLHSQLVRDLLEVTSGLISDDIINMRNDLYQTPLHLAVITKQEDVVEDLLRAGADLSLLDRLGNSVLHLAAKEGHDKVLSILLKHKKAALLLDHPNGDGLNAIHLAMMSNSLPCLLLLVAAGADVNAQEQKSGRTALHLAVEHDNISLAGCLLLEGDAHVDSTTYDGTTPLHIAAGRGSTRLAALLKAAGADPLVENFEPLYDLDDSWENAGEDEGVVPGTTPLDMATSWQVFDILNGKPYEPEFTSDD", "values": [
      {"measurement": "binding to the TPL-2 peptide (affinity constants)", "setting": "[2]", "value": "did not detectably bind"}
    ]},
    {"molecule": "biotinylated TPL-2398-467 peptide (Immobilized on a streptavidin-coated BIAcore sensor surface; also called TPL-2 peptide; TPL-2 C-terminus) peptide: C(Biotin)TSLDSALLERKRLLSRKELELPENIADSSCTGSTEESEMLKRQRSLYIDLGALAGYFNLVRGPPTLEYG", "values": [
      {"measurement": "binding result", "setting": "recombinant p105 541-802", "value": "no binding"}
    ]},
    {"molecule": "TPL-2398-467 peptide: synthetic peptide corresponding to the C-terminal 70 amino acids of TPL-2 (peptide) peptide: CTSLDSALLERKRLLSRKELELPENIADSSCTGSTEESEMLKRQRSLYIDLGALAGYFNLVRGPPTLEYG", "values": [
      {"measurement": "effect on TPL-2ΔC in vitro MEK kinase activity", "setting": "[3]", "value": "not found to affect"}
    ]},
    {"molecule": "recombinant p105498-969 protein (other) QDNLFLEKAMQLAKRHANALFDYAVTGDVKMLLAVQRHLTAVQDENGDSVLHLAIIHLHSQLVRDLLEVTSGLISDDIINMRNDLYQTPLHLAVITKQEDVVEDLLRAGADLSLLDRLGNSVLHLAAKEGHDKVLSILLKHKKAALLLDHPNGDGLNAIHLAMMSNSLPCLLLLVAAGADVNAQEQKSGRTALHLAVEHDNISLAGCLLLEGDAHVDSTTYDGTTPLHIAAGRGSTRLAALLKAAGADPLVENFEPLYDLDDSWENAGEDEGVVPGTTPLDMATSWQVFDILNGKPYEPEFTSDDLLAQGDMKQLAEDVKLQLYKLLEIPDPDKNWATLAQKLGLGILNNAFRLSPAPSKTLMDNYEVSGGTVRELVEALRQMGYTEAIEVIQAASSPVKTTSQAHSLPLSPASTRQQIDELRDSDSVCDSGVETSFRKLSFTESLTSGASLLTLNKMPHDYGQEGPLEGKI", "values": [
      {"measurement": "IC50 of inhibition of TPL-2 MEK kinase activity (phosphorylation of GST-MEK1(K207A) in vitro)", "setting": "Myc-TPL-2", "value": 90, "unit": "nM"},
      {"measurement": "IC50 of inhibition of TPL-2ΔC MEK kinase activity in vitro", "setting": "Myc-TPL-2ΔC", "value": 1000, "unit": "nM"},
      {"measurement": "effect on Myc-Raf1(CAAX) MEK kinase activity", "setting": "[4]", "value": "unaffected"}
    ]},
    {"molecule": "endogenous TPL-2 (mouse 3T3 fibroblasts) (enzyme, UniProt Q07174 1-467, looked up) MEYMSTGSDEKEEIDLLIKHLNVSEVIDIMENLYASEEPGVYEPSLMTMYPDSNQNEERSESLLRSGQEVPWLSSVRYGTVEDLLAFANHVSNMTKHFYGRRPQECGILLNMVISPQNGRYQIDSDVLLVPWKLTYRNIGSGFVPRGAFGKVYLAQDMKTKKRMACKLIPIDQFKPSDVEIQACFRHENIAELYGAVLWGDTVHLFMEAGEGGSVLEKLESCGPMREFEIIWVTKHILKGLDFLHSKKVIHHDIKPSNIVFMSTKAVLVDFGLSVKMTEDVYLPKDLRGTEIYMSPEVILCRGHSTKADIYSLGATLIHMQTGTPPWVKRYPRSAYPSYLYIIHKQAPPLEDIAGDCSPGMRELIEAALERNPNHRPKAADLLKHEALNPPREDQPRCQSLDSALFERKRLLSRKELQLPENIADSSCTGSTEESEVLRRQRSLYIDLGALAGYFNIVRGPPTLEYG", "values": [
      {"measurement": "binding result", "setting": "[5]", "value": "binds"}
    ]}
  ]
}
